This is an account of results in article PMC2645956.

In the test the target is Paracoccus denitrificans soluble cytochrome c552 fragment, wild-type (unlabeled) (Paracoccus denitrificans) (UniProt P54820).
UniProt P54820, sequence (P54820 78-176): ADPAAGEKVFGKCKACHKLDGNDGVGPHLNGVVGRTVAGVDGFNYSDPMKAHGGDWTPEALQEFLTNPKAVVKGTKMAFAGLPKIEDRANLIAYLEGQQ

As to “Paracoccus denitrificans soluble cytochrome c1 core fragment, wild-type (domain or fragment)”, the Brønsted parameter ZAZB of the ionic strength dependence of k12, stopped-flow is -4.
